Laboratory results from the Human Domainome abundance scans (Beltran et al. 2025).
± gives the uncertainty stated by the source.

B1: RanBP-type and C3HC4-type zinc finger-containing protein 1, residues 369 to 411; numbered along this chain, Q9BYM8 (parent)
chain: YHCKTPDCKGWCFFEDDVNEFTCPVCFHVNCLLCKAIHEQMNC

Variants of: B1
Test: abundance fitness (aPCA) (normalised: wild type 0, dead -1); higher = more abundant; growth selection in yeast, the domain comes from the species named
Conditions: Homo sapiens

Variant	abundance fitness
YHCKTPDCKGWCFFEDDVNEFTCPVCFHVNCLLCKAIQEQMNC	-0.63 ± 0.06
YHCKTPDCKGWCFFEDDVNEFTCPVCFHVNCLLCKAIYEQMNC	-0.721 ± 0.12
YHCKTPDCKGWCFFEDDVNEFTCPVCFHVNCLLCKAISEQMNC	-0.614 ± 0.052
YHCKTPDCKGWCFFEDDVNEFTCPVCFHVNCLLCKAITEQMNC	-0.639 ± 0.088
YHCKTPDCKGWCFFEDDVNEFTCPVCFHVNCLLCKAIREQMNC	-0.699 ± 0.055
YHCKTPDCKGWCFFEDDVNEFTCPVCFHVNCLLCKAIPEQMNC	-0.611 ± 0.084
YHCKTPDCKGWCFFEDDVNEFTCPVCFHVNCLLCKAIVEQMNC	-0.803 ± 0.082
YHCKTPDCKGWCFFEDDVNEFTCPVCFHVNCLLCKAIDEQMNC	-0.482 ± 0.062
YHCKTPDCKGWCFFEDDVNEFTCPVCFHVNCLLCKAIKEQMNC	-0.707 ± 0.084
YHCKTPDCKGWCFFEDDVNEFTCPVCFHVNCLLCKAILEQMNC	-1.14 ± 0.11
YHCKTPDCKGWCFFEDDVNEFTCPVCFHVNCLLCKAIAEQMNC	-0.689 ± 0.064
YHCKTPDCKGWCFFEDDVNEFTCPVCFHVNCLLCRAIHEQMNC	-0.021 ± 0.043
YHCKTPDCKGWCFFEDDVNEFTCPVCFHVNCLLCTAIHEQMNC	-0.281 ± 0.042
YHCKTPDCKGWCFFEDDVNEFTCPVCFHVNCLLCQAIHEQMNC	-0.026 ± 0.06
YHCKTPDCKGWCFFEDDVNEFTCPVCFHVNCLLCWAIHEQMNC	-0.385 ± 0.064
YHCKTPDCKGWCFFEDDVNEFTCPVCFHVNCLLCVAIHEQMNC	-0.406 ± 0.05
YHCKTPDCKGWCFFEDDVNEFTCPVCFHVNCLLCSAIHEQMNC	-0.014 ± 0.057
YHCKTPDCKGWCFFEDDVNEFTCPVCFHVNCLLCYAIHEQMNC	-0.273 ± 0.061
YHCKTPDCKGWCFFEDDVNEFTCPVCFHVNCLLCKCIHEQMNC	-0.154 ± 0.071
YHCKTPDCKGWCFFEDDVNEFTCPVCFHVNCLLCKIIHEQMNC	-0.331 ± 0.11

Variant	abundance fitness
YHCKTPDCKGWCFFEDDVNEFTCPVCFHVNCLLCKDIHEQMNC	-0.053 ± 0.064
YHCKTPDCKGWCFFEDDVNEFTCPVCFHVNCLLCKMIHEQMNC	-0.266 ± 0.068
YHCKTPDCKGWCFFEDDVNEFTCPVCFHVNCLLCKRIHEQMNC	-0.015 ± 0.043
YHCKTPDCKGWCFFEDDVNEFTCPVCFHVNCLLCKGIHEQMNC	0.051 ± 0.038
YHCKTPDCKGWCFFEDDVNEFTCPVCFHVNCLLCKSIHEQMNC	0.01 ± 0.05
YHCKTPDCKGWCFFEDDVNEFTCPVCFHVNCLLCKWIHEQMNC	-0.87 ± 0.075
YHCKTPDCKGWCFFEDDVNEFTCPVCFHVNCLLCKKIHEQMNC	-0.084 ± 0.052
YHCKTPDCKGWCFFEDDVNEFTCPVCFHVNCLLCKTIHEQMNC	0.005 ± 0.047
YHCKTPDCKGWCFFEDDVNEFTCPVCFHVNCLLCKPIHEQMNC	-0.333 ± 0.064
YHCKTPDCKGWCFFEDDVNEFTCPVCFHVNCLLCKVIHEQMNC	-0.28 ± 0.044
YHCKTPDCKGWCFFEDDVNEFTCPVCFHVNCLLCKLIHEQMNC	-0.534 ± 0.053
YHCKTPDCKGWCFFEDDVNEFTCPVCFHVNCLLCKFIHEQMNC	-0.848 ± 0.12
YHCKTPDCKGWCFFEDDVNEFTCPVCFHVNCLLCKNIHEQMNC	-0.111 ± 0.065
YHCKTPDCKGWCFFEDDVNEFTCPVCFHVNCLLCKYIHEQMNC	-0.83 ± 0.22
YHCKTPDCKGWCFFEDDVNEFTCPVCFHVNCLLCKEIHEQMNC	0.058 ± 0.062
YHCKTPDCKGWCFFEDDVNEFTCPVCFHVNCLLCKAIHEQMFC	-0.415 ± 0.12
YHCKTPDCKGWCFFEDDVNEFTCPVCFHVNCLLCKAIHEQMEC	0.075 ± 0.055
YHCKTPDCKGWCFFEDDVNEFTCPVCFHVNCLLCKAIHEQMDC	0.025 ± 0.066
YHCKTPDCKGWCFFEDDVNEFTCPVCFHVNCLLCKAIHEQMIC	-0.231 ± 0.21
YHCKTPDCKGWCFFEDDVNEFTCPVCFHVNCLLCKAIHEQMAC	0.106 ± 0.043

Variant	abundance fitness
YHCKTPDCKGWCFFEDDVNEFTCPVCFHVNCLLCKAIHEQMCC	-0.005 ± 0.094
YHCKTPDCKGWCFFEDDVNEFTCPVCFHVNCLLCKAIHEQMGC	0.161 ± 0.041
YHCKTPDCKGWCFFEDDVNEFTCPVCFHVNCLLCKAIHEQMHC	0.138 ± 0.091
YHCKTPDCKGWCFFEDDVNEFTCPVCFHVNCLLCKARHEQMNC	-0.145 ± 0.039
YHCKTPDCKGWCFFEDDVNEFTCPVCFHVNCLLCKAEHEQMNC	-0.181 ± 0.055
YHCKTPDCKGWCFFEDDVNEFTCPVCFHVNCLLCKACHEQMNC	-0.222 ± 0.12
YHCKTPDCKGWCFFEDDVNEFTCPVCFHVNCLLCKAWHEQMNC	-0.39 ± 0.05
YHCKTPDCKGWCFFEDDVNEFTCPVCFHVNCLLCKAYHEQMNC	-0.464 ± 0.064
YHCKTPDCKGWCFFEDDVNEFTCPVCFHVNCLLCKAQHEQMNC	-0.077 ± 0.18
YHCKTPDCKGWCFFEDDVNEFTCPVCFHVNCLLCKASHEQMNC	-0.183 ± 0.046
YHCKTPDCKGWCFFEDDVNEFTCPVCFHVNCLLCKADHEQMNC	-0.107 ± 0.076
YHCKTPDCKGWCFFEDDVNEFTCPVCFHVNCLLCKANHEQMNC	-0.269 ± 0.089
YHCKTPDCKGWCFFEDDVNEFTCPVCFHVNCLLCKAAHEQMNC	-0.152 ± 0.043
YHCKTPDCKGWCFFEDDVNEFTCPVCFHVNCLLCKALHEQMNC	-0.219 ± 0.047
YHCKTPDCKGWCFFEDDVNEFTCPVCFHVNCLLCKAFHEQMNC	-0.412 ± 0.086
YHCKTPDCKGWCFFEDDVNEFTCPVCFHVNCLLCKAMHEQMNC	-0.214 ± 0.076
YHCKTPDCKGWCFFEDDVNEFTCPVCFHVNCLLCKAKHEQMNC	-0.208 ± 0.083
YHCKTPDCKGWCFFEDDVNEFTCPVCFHVNCLLCKAHHEQMNC	-0.218 ± 0.086
YHCKTPDCKGWCFFEDDVNEFTCPVCFHVNCLLCKAPHEQMNC	-0.133 ± 0.051
